Test results as given in patent US20220298218A1 (ANTAG THERAPEUTICS, published 2022).
*1 amine or outer side, *2 acyl side, *3 side chain or, on linkers, in order; H or OH if unused. Where no end group is shown, it is not given here. Side-chain parts run from the residue outwards. [ ]: non-standard residue; d: D form. The star is where a group is joined. phenyl lactic acid = phenyl lactic acid at the N-terminus; C16 diacid = O=C(O)CCCCCCCCCCCCCCC(=O)*; γGlu = O=C(O)[C@H](CCC(=O)[*:2])N[*:1]; Aib = CC(C)(N)C(=O)O

T1: human GIP receptor (human, UniProt P48546 22-466)
T1 sequence (looked up): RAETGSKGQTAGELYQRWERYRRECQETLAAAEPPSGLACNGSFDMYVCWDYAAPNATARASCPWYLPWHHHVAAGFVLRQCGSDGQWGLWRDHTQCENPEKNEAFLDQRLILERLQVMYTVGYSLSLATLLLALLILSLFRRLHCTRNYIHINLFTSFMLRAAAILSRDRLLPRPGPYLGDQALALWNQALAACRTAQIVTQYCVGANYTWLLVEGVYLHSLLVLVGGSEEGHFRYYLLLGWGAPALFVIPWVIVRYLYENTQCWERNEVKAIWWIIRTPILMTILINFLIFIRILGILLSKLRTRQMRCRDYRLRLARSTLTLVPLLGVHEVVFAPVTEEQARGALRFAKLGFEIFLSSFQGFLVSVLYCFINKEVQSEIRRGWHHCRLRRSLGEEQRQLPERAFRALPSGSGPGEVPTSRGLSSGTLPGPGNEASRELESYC

B1: AT641 (peptide)
peptide: GETFISDYSIAMDKIK(C16 diacid)QQDFVNWLLAQKPSSGAPPPS-OH
modifications: N-terminus assumed
SMILES: CC[C@H](C)[C@H](NC(=O)[C@H](CO)NC(=O)[C@H](Cc1ccc(O)cc1)NC(=O)[C@H](CC(=O)O)NC(=O)[C@H](CO)NC(=O)[C@@H](NC(=O)[C@H](Cc1ccccc1)NC(=O)[C@@H](NC(=O)[C@H](CCC(=O)O)NC(=O)CN)[C@@H](C)O)[C@@H](C)CC)C(=O)N[C@@H](C)C(=O)N[C@@H](CCSC)C(=O)N[C@@H](CC(=O)O)C(=O)N[C@@H](CCCCN)C(=O)N[C@H](C(=O)N[C@@H](CCCCNC(=O)CCCCCCCCCCCCCCC(=O)O)C(=O)N[C@@H](CCC(N)=O)C(=O)N[C@@H](CCC(N)=O)C(=O)N[C@@H](CC(=O)O)C(=O)N[C@@H](Cc1ccccc1)C(=O)N[C@H](C(=O)N[C@@H](CC(N)=O)C(=O)N[C@@H](Cc1c[nH]c2ccccc12)C(=O)N[C@@H](CC(C)C)C(=O)N[C@@H](CC(C)C)C(=O)N[C@@H](C)C(=O)N[C@@H](CCC(N)=O)C(=O)N[C@@H](CCCCN)C(=O)N1CCC[C@H]1C(=O)N[C@@H](CO)C(=O)N[C@@H](CO)C(=O)NCC(=O)N[C@@H](C)C(=O)N1CCC[C@H]1C(=O)N1CCC[C@H]1C(=O)N1CCC[C@H]1C(=O)N[C@@H](CO)C(=O)O)C(C)C)[C@@H](C)CC
B2: AT642 (peptide)
peptide: PETFISDYSIAMDKIK(C16 diacid)QQDFVNWLLAQKPSSGAPPPS-OH
modifications: N-terminus assumed
SMILES: CC[C@H](C)[C@H](NC(=O)[C@H](CO)NC(=O)[C@H](Cc1ccc(O)cc1)NC(=O)[C@H](CC(=O)O)NC(=O)[C@H](CO)NC(=O)[C@@H](NC(=O)[C@H](Cc1ccccc1)NC(=O)[C@@H](NC(=O)[C@H](CCC(=O)O)NC(=O)[C@@H]1CCCN1)[C@@H](C)O)[C@@H](C)CC)C(=O)N[C@@H](C)C(=O)N[C@@H](CCSC)C(=O)N[C@@H](CC(=O)O)C(=O)N[C@@H](CCCCN)C(=O)N[C@H](C(=O)N[C@@H](CCCCNC(=O)CCCCCCCCCCCCCCC(=O)O)C(=O)N[C@@H](CCC(N)=O)C(=O)N[C@@H](CCC(N)=O)C(=O)N[C@@H](CC(=O)O)C(=O)N[C@@H](Cc1ccccc1)C(=O)N[C@H](C(=O)N[C@@H](CC(N)=O)C(=O)N[C@@H](Cc1c[nH]c2ccccc12)C(=O)N[C@@H](CC(C)C)C(=O)N[C@@H](CC(C)C)C(=O)N[C@@H](C)C(=O)N[C@@H](CCC(N)=O)C(=O)N[C@@H](CCCCN)C(=O)N1CCC[C@H]1C(=O)N[C@@H](CO)C(=O)N[C@@H](CO)C(=O)NCC(=O)N[C@@H](C)C(=O)N1CCC[C@H]1C(=O)N1CCC[C@H]1C(=O)N1CCC[C@H]1C(=O)N[C@@H](CO)C(=O)O)C(C)C)[C@@H](C)CC
B3: AT643 (peptide)
peptide: DTTFISDYSIAMDKIK(C16 diacid)QQDFVNWLLAQKPSSGAPPPS-OH
modifications: N-terminus assumed
SMILES: CC[C@H](C)[C@H](NC(=O)[C@H](CO)NC(=O)[C@H](Cc1ccc(O)cc1)NC(=O)[C@H](CC(=O)O)NC(=O)[C@H](CO)NC(=O)[C@@H](NC(=O)[C@H](Cc1ccccc1)NC(=O)[C@@H](NC(=O)[C@@H](NC(=O)[C@@H](N)CC(=O)O)[C@@H](C)O)[C@@H](C)O)[C@@H](C)CC)C(=O)N[C@@H](C)C(=O)N[C@@H](CCSC)C(=O)N[C@@H](CC(=O)O)C(=O)N[C@@H](CCCCN)C(=O)N[C@H](C(=O)N[C@@H](CCCCNC(=O)CCCCCCCCCCCCCCC(=O)O)C(=O)N[C@@H](CCC(N)=O)C(=O)N[C@@H](CCC(N)=O)C(=O)N[C@@H](CC(=O)O)C(=O)N[C@@H](Cc1ccccc1)C(=O)N[C@H](C(=O)N[C@@H](CC(N)=O)C(=O)N[C@@H](Cc1c[nH]c2ccccc12)C(=O)N[C@@H](CC(C)C)C(=O)N[C@@H](CC(C)C)C(=O)N[C@@H](C)C(=O)N[C@@H](CCC(N)=O)C(=O)N[C@@H](CCCCN)C(=O)N1CCC[C@H]1C(=O)N[C@@H](CO)C(=O)N[C@@H](CO)C(=O)NCC(=O)N[C@@H](C)C(=O)N1CCC[C@H]1C(=O)N1CCC[C@H]1C(=O)N1CCC[C@H]1C(=O)N[C@@H](CO)C(=O)O)C(C)C)[C@@H](C)CC
B4: AT644 (peptide)
peptide: GETFISDYAIALDKIK(C16 diacid)QQDFVEWLLAQGPSSGAPPPS-OH
modifications: N-terminus assumed
SMILES: CC[C@H](C)[C@H](NC(=O)[C@H](C)NC(=O)[C@H](Cc1ccc(O)cc1)NC(=O)[C@H](CC(=O)O)NC(=O)[C@H](CO)NC(=O)[C@@H](NC(=O)[C@H](Cc1ccccc1)NC(=O)[C@@H](NC(=O)[C@H](CCC(=O)O)NC(=O)CN)[C@@H](C)O)[C@@H](C)CC)C(=O)N[C@@H](C)C(=O)N[C@@H](CC(C)C)C(=O)N[C@@H](CC(=O)O)C(=O)N[C@@H](CCCCN)C(=O)N[C@H](C(=O)N[C@@H](CCCCNC(=O)CCCCCCCCCCCCCCC(=O)O)C(=O)N[C@@H](CCC(N)=O)C(=O)N[C@@H](CCC(N)=O)C(=O)N[C@@H](CC(=O)O)C(=O)N[C@@H](Cc1ccccc1)C(=O)N[C@H](C(=O)N[C@@H](CCC(=O)O)C(=O)N[C@@H](Cc1c[nH]c2ccccc12)C(=O)N[C@@H](CC(C)C)C(=O)N[C@@H](CC(C)C)C(=O)N[C@@H](C)C(=O)N[C@@H](CCC(N)=O)C(=O)NCC(=O)N1CCC[C@H]1C(=O)N[C@@H](CO)C(=O)N[C@@H](CO)C(=O)NCC(=O)N[C@@H](C)C(=O)N1CCC[C@H]1C(=O)N1CCC[C@H]1C(=O)N1CCC[C@H]1C(=O)N[C@@H](CO)C(=O)O)C(C)C)[C@@H](C)CC
B5: AT646 (peptide)
peptide: GETFISTYSIALDKIK(C16 diacid)QQDFVEWLLAQKPSSGAPPPS-OH
modifications: N-terminus assumed
SMILES: CC[C@H](C)[C@H](NC(=O)[C@H](CO)NC(=O)[C@H](Cc1ccc(O)cc1)NC(=O)[C@@H](NC(=O)[C@H](CO)NC(=O)[C@@H](NC(=O)[C@H](Cc1ccccc1)NC(=O)[C@@H](NC(=O)[C@H](CCC(=O)O)NC(=O)CN)[C@@H](C)O)[C@@H](C)CC)[C@@H](C)O)C(=O)N[C@@H](C)C(=O)N[C@@H](CC(C)C)C(=O)N[C@@H](CC(=O)O)C(=O)N[C@@H](CCCCN)C(=O)N[C@H](C(=O)N[C@@H](CCCCNC(=O)CCCCCCCCCCCCCCC(=O)O)C(=O)N[C@@H](CCC(N)=O)C(=O)N[C@@H](CCC(N)=O)C(=O)N[C@@H](CC(=O)O)C(=O)N[C@@H](Cc1ccccc1)C(=O)N[C@H](C(=O)N[C@@H](CCC(=O)O)C(=O)N[C@@H](Cc1c[nH]c2ccccc12)C(=O)N[C@@H](CC(C)C)C(=O)N[C@@H](CC(C)C)C(=O)N[C@@H](C)C(=O)N[C@@H](CCC(N)=O)C(=O)N[C@@H](CCCCN)C(=O)N1CCC[C@H]1C(=O)N[C@@H](CO)C(=O)N[C@@H](CO)C(=O)NCC(=O)N[C@@H](C)C(=O)N1CCC[C@H]1C(=O)N1CCC[C@H]1C(=O)N1CCC[C@H]1C(=O)N[C@@H](CO)C(=O)O)C(C)C)[C@@H](C)CC
B6: AT647 (peptide)
peptide: EGTFISTYK([γGlu-C16 diacid])IALDKIHQQDFVEWLLAQKPSSGAPPPS-OH
B7: AT650 (peptide)
peptide: EGTFISDYSIAMDKIK(C16 diacid)QQDFVNWLLAQKPSSGAPPPS-NH2
modifications: N-terminus assumed
SMILES: CC[C@H](C)[C@H](NC(=O)[C@H](CO)NC(=O)[C@H](Cc1ccc(O)cc1)NC(=O)[C@H](CC(=O)O)NC(=O)[C@H](CO)NC(=O)[C@@H](NC(=O)[C@H](Cc1ccccc1)NC(=O)[C@@H](NC(=O)CNC(=O)[C@@H](N)CCC(=O)O)[C@@H](C)O)[C@@H](C)CC)C(=O)N[C@@H](C)C(=O)N[C@@H](CCSC)C(=O)N[C@@H](CC(=O)O)C(=O)N[C@@H](CCCCN)C(=O)N[C@H](C(=O)N[C@@H](CCCCNC(=O)CCCCCCCCCCCCCCC(=O)O)C(=O)N[C@@H](CCC(N)=O)C(=O)N[C@@H](CCC(N)=O)C(=O)N[C@@H](CC(=O)O)C(=O)N[C@@H](Cc1ccccc1)C(=O)N[C@H](C(=O)N[C@@H](CC(N)=O)C(=O)N[C@@H](Cc1c[nH]c2ccccc12)C(=O)N[C@@H](CC(C)C)C(=O)N[C@@H](CC(C)C)C(=O)N[C@@H](C)C(=O)N[C@@H](CCC(N)=O)C(=O)N[C@@H](CCCCN)C(=O)N1CCC[C@H]1C(=O)N[C@@H](CO)C(=O)N[C@@H](CO)C(=O)NCC(=O)N[C@@H](C)C(=O)N1CCC[C@H]1C(=O)N1CCC[C@H]1C(=O)N1CCC[C@H]1C(=O)N[C@@H](CO)C(N)=O)C(C)C)[C@@H](C)CC
B8: AT652 (peptide)
peptide: {phenyl lactic acid}-PGTFISDYSIAMDKIKQQDFVNWLLAQKPSSGAPPPSK(C16 diacid)-NH2
modifications: not fully specified
B9: AT665 (peptide)
peptide: EGTFISDYSI[Aib]MDKIK(C16 diacid)QQDFVEWLLAQKPSSGAPPPS-OH

target: T1, human GIP receptor; experiment: cell-based or functional assay

B1 and B2 are the same in “cAMP agonism % Emax” value: 0% for the first, 0% for the second.

B3 and B4 are the same in “cAMP agonism % Emax” value: 0% for the first, 0% for the second.

B5 and B6 are the same in “cAMP agonism % Emax” value: 0% for the first, 0% for the second.

Compared with B7, B8 is higher in “cAMP agonism % Emax” value: 0% for the first, 17% for the second.

With B9 the “cAMP agonism % Emax” value was 0%.

Compared with B1, B2 is 4.5-fold higher in “cAMP antagonism” value: 7.94 nM for the first, 35.5 nM for the second.

Compared with B3, B4 is 1.5-fold higher in “cAMP antagonism” value: 11.2 nM for the first, 17.1 nM for the second.

Going from B5 to B6, the “cAMP antagonism” value rises from 10 nM to 18.8 nM (1.9-fold).

First: B7
Second: B8
The “cAMP antagonism” value of the first is 2.9-fold lower: 3.69 nM for the first, 10.6 nM for the second.

With B9 the “cAMP antagonism” value was 0.15 nM.

Going from B1 to B2, the “cAMP antagonism % inhib” value rises from 91% to 92%.

Going from B3 to B4, the “cAMP antagonism % inhib” value rises from 90% to 93%.

Compared with B5, B6 is higher in “cAMP antagonism % inhib” value: 96% for the first, 100% for the second.

Going from B7 to B8, the “cAMP antagonism % inhib” value falls from 94% to 60%.

For B9, the “cAMP antagonism % inhib” value was 88%.

Compared with B1, B2 is lower in “cAMP antagonism pIC50” value: 8.1 for the first, 7.5 for the second.

First: B3
Second: B4
The “cAMP antagonism pIC50” value of the first is higher: 8 for the first, 7.8 for the second.

Going from B5 to B6, the “cAMP antagonism pIC50” value falls from 8 to 7.7.

Going from B7 to B8, the “cAMP antagonism pIC50” value falls from 8.4 to 8.

In the case of B9, the “cAMP antagonism pIC50” value is reported as 9.8.
